Assay results reported in the nanobody polyreactivity screen of Harvey et al. (2022).

Assay: yeast display, Sf9 membrane polyspecificity reagent, FACS + sequencing; frameworks hold sequencing errors
In short: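 Genes from sorted yeast were amplified by colony PCR, read by MiSeq 2 × 250 sequencing and filtered on CDR length. These cells carried a synthetic nanobody library in Saccharomyces cerevisiae BJ5465 and were sorted by FACS into low and high (top ~1%) gates on anti-HA and streptavidin fluorescence. Polyreactivity is labelled according to the gate of origin.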

QVQLVESGGGLVQAGGSLRLSCAASGRIFYYNTMGWYRQAPGKERELVARITYSGGRTYYADSVKGRFTISRDNAKNTVYLQMNSLKPEDTAVYYCNAKPRYYQTGGGYWGQGTQVTVSS
polyreactivity (PSR sort gate): high polyreactivity

QVQLVESGGGLVQPGGSLRLSCAASGNTFANYAMGWYRQAPGKERELVAAITSNGGSTYYADSVKGRFTISRDNAKNTVFLQMNSLKPEDTAVYYCAADAAYYSGYDYWGQGTQVTVSS
polyreactivity (PSR sort gate): low polyreactivity

QVQLVESGGGLVQAGGSLRLSCAASGRIFGNTMGWYRQAPGKERELVAAITRSGVSTYYADSVKGRFTISRDNAKNTVYLQMNSLKPEDTAVYYCAKVYSRRSVLSRYGSWGQGTQVTVSS
polyreactivity (PSR sort gate): high polyreactivity

QVQLVESGGGLVQAGGSLRLSCAASGSIFYRYAIGWYRHPPGKERELVAAITRGGTTYYADSVKGRFTISRDNAKNTVYLQMNSLKPEDSAVYYCAARLRYTTVIYYYWGQGTQVTVSS
polyreactivity (PSR sort gate): high polyreactivity

QVQLVESGGGLVQAGGSLRLSCAASGSSFSHYAMGWYRQAPGKVRELVAGISVRGGSTYYADSVKGRFTISRDNAKNTVDLQMNSLKPEDTAVYYCAIGYAKYYRTYYYWGQGTQVTVSS
polyreactivity (PSR sort gate): high polyreactivity

QVQLVESGGGLVQAGGSLRLSCAASGRTFRYNAMGWYRQAPGKERELVAGITWRGGRTYYADSVKGRFTISRDNAKNTVYLQMNSLKPEDTAVYYCNTAGYYWLHYTMDYWGQGTQVTVSS
polyreactivity (PSR sort gate): high polyreactivity

QVQLVESGGGLVQAGGSLRLSCAASGSIFVYYAMRWYRQAPGKERELVAAITIGASTDYADSVKGRFTISRDNAKNTVYLQMNSLKPEDTAVYYCAADLYYGDYRTLPKPDEYDYWGQGTQVTVSS
polyreactivity (PSR sort gate): low polyreactivity

QVQLVESGGGLVQAGGSLRLSCAASGFIFRYYAMGWYRQAPGKERELVAAIDYSGGSTNYADSVKGRFTISRDNAKNTVYLQMNSLKPEDTAVYYYDYWGQGTQVTVSS
polyreactivity (PSR sort gate): low polyreactivity

QVQLVESGGGLVQAGGSLRLSCAASGSTFVYYAKGWYRQAPGKEREFVAAISISTGSTYYADSVKGRFTISRDNAKNTVYLQMNSLKPEDTAVYYCAVDWFLGGYDDLDYWGQGTQVTVSS
polyreactivity (PSR sort gate): low polyreactivity

KVQLVESGGCLVQAGGSLSLSCAASGSIFAVYAMGWYRQAPGKERELVAAITLSGGSTYAYSVKGRFTISRDNAKNTFYLQMKSLKPEDTAVYYCNAVSANYDYVDYEYWGQGTQVNVSS
polyreactivity (PSR sort gate): low polyreactivity

QVQIVESGGALVQAGGSLRFSCAASGSIFFSNTRGWYRQAPGKEREFVAAITWSTGNTYYADSVKGRFTISRDNAKNTVYLQMNSLKPEDTAVYYCYAEYLVITWYGGVEFDYWGQGTQVTVSS
polyreactivity (PSR sort gate): low polyreactivity

QVQLVESGGGFVQAGGSLRLSCAASGRIFHHNAMGGYRQAPGKVRELDATITKSGGSTYADSVKGRFTISRANAKNTVYLQMNSRKPEETAVYSCAATSVGAYGVRKYWYDYWAQGTQVTVSS
polyreactivity (PSR sort gate): low polyreactivity

QVQLVESGGGLVQAGGSLRLSCAAYGRTFGYNTMGWYRQAPGKERELVATIRTNGVSTYYADSVKGRFTISRDNAKNTVYLQMNSLKPEDTAVYYCNADPHDQYDYWGQGTQVTVSS
polyreactivity (PSR sort gate): low polyreactivity

QVQLVESGGGLVQAGGSLRLSCAASGRILYRYAMGWYRQATGKERELVAAISWSGGSTYYADSVKGRFTISRDNAKNSVYLQMNSLKPEDTAVYYCAARYKRAYSRDYWGQGTQVTVSS
polyreactivity (PSR sort gate): high polyreactivity

QVQLVESGGGLVQAGGSLRLSCAASGNIFTYYVRGWYRQEPGKERELVAAISRRGGSTYYADSVKGRFTISRDFAKNTVYLQMNSLKPEDTAVYYCAKKYPRDMDYWGQGTQVTVSS
polyreactivity (PSR sort gate): high polyreactivity

QVQLVESGGGLVQAGGSLRLSCAASGRTFVPYAMGWYRQAPGKERELVATITSAGSTYYADSVKGRFTISRDNAKNTVYLQMNSLKPEDTAVYYCNARYYSRRWPYDYWGQGTQVTVSS
polyreactivity (PSR sort gate): high polyreactivity

QVQLVESGGGLVQAGGSLRLSCAASGFIFASYTMGWYRQAPGNEREWVAAISRSGGRTYYADSVKGRFTISRDNAKKTVYLQMNSLKPEDTAVYYCATLETTGVNYWGQGTQVTVSS
polyreactivity (PSR sort gate): high polyreactivity

QVQLVESGGGLVQAGGSLRLSCAASGFIFYPYAMGWYRQAPGKERELVAVITSGGRTYYADSVKGRFTISRDNAKNTVYLQMNSLKPEDTAVYYCAARYGSIHWKANWPEYGYWGQGTQVTVSS
polyreactivity (PSR sort gate): low polyreactivity

QVQLVESGGGLVQAGGSLRLSCAASGFTFARYAMGWYRQAPGKERELVAAINWSGGRTYYADSVKGRFTISRDNAKNTVYLQMNSLKPEDTAVYYCNAWGLVYYSSGYDYWGQGTQVTVSS
polyreactivity (PSR sort gate): high polyreactivity

QVQLVESGGGLVQAGGSLRLSCAASGRTFVNYVMGWYRQAPGKEREFVAAISRNGGSTYYADSVKGRFTISRDNAKNTVYLQMNSLKPEDTAVYYCAARVYWRYNYWGQGTQVTVSS
polyreactivity (PSR sort gate): high polyreactivity

QVQLVESGGGLVQAGGSLRLSCAASGNTFFDYDMGWYRQAPGKERELVATITNSGTSTYYTDSVKGRFTISRDNAKNTVYLQMNSLKPEDTAVYYCAADLFYAVLGNEYDYWGQGTQVTVSS
polyreactivity (PSR sort gate): high polyreactivity

QVQLVESGGGLVQAGGSHRLSCPASGLTFYSNAMGWYRQSPGKERELVASISYRGGITYYADSLKGRFTISRDNAKNTVYLQMNSLKPEDTAVYYGAAGRKGSMYYWGQGTQVTVSS
polyreactivity (PSR sort gate): high polyreactivity

QVQLVESGGGLVQAGGSLRLSCAASGSTFTYNTMGWYRQAPGKERELVAAINTTGNTYADSVKGRFTISRDNAKNTVYLQMNSLKPEDTAVYYCNTDYVPRRHDMDYWGQGTQVTVSS
polyreactivity (PSR sort gate): low polyreactivity

QVQLVESGGGLVQAGGSLRLSCAASGFIFAPNVMGWYRQAPGKERELVAAINISGGSTSYADSVKGRFTISRDNAKNTVYLQMNSLKPEDTAVYYCAAEIPAYAYSYSYDYWGQGTQVTVSS
polyreactivity (PSR sort gate): low polyreactivity

QVQLVESGGGIVQEGRSLSISCAASGSTFYTYAMGWYRPAPGKERELVAAITQSGGRTYYADSVKGRFTISRDNANNTVYLEMNSLKPEDTAVDYCNAPPYTGYDWGQGTQVSVSS
polyreactivity (PSR sort gate): high polyreactivity

QVQLVESGGGLVQAGGSLRLSCAASGSTLFYYAMGCYRQAPGKERELVAAITQNGGGTYYADSVKGRFTISRDNAKNTVYLQMNSLKPEDTAVYYCAVTQEYIADHWYGYWGQGTQVTVSS
polyreactivity (PSR sort gate): low polyreactivity

QVQLVESGGGLVQAGGSLRLSCAASGRTFTEYAMGWYSQAHGKERELVARISIGDSTYYADSVKGRFTISRDNAKNTVYLQMNSLKPEDTAVFYCNAEYSRSYRYDEGYWGQGTQVTVSS
polyreactivity (PSR sort gate): low polyreactivity

QVQLVESGGGLVQAGGSLRLSCAASGYIFGYYAMGWYRQAPGQEREFVAAINWSGGSTYYADSVNGRFTISRDNAKNTVYLQMNSLKPEDTAVYYCARSYRSRVVYKFGYWGQGTQVTVSS
polyreactivity (PSR sort gate): high polyreactivity

QVQLVESGGGLVQAGGSLRLSCAASGRIFSGNAMGWYRQAPGKERELVAAISGSGGSTYYADSVKGRFTISRDNAKNTVYLQMNSLKPEDTAVYYCADRYTVRRSGYWGQGTQVTVSS
polyreactivity (PSR sort gate): high polyreactivity

QVQLVESGGRLVQAGGRLRLSCAASGSIFLYNARGWYRQAPGKERELVAAINYSGVSTYYADSVKGRFTISRDNAKNTVYLQMNSLKPEDTAVYYCARRWNAFGSKGGYWGQGTQVTVSS
polyreactivity (PSR sort gate): high polyreactivity

QVQLVESGGGLVQAGGSLRLSCAPSGFTFDPYAMGWYRQAPGKERELVAAIDYSGGTTYYADSVKGRFTISRDNAKNTVYLQMNSLKPEDTAVYYCAAEYTYYHWWGYDYWGQGTQVTVSS
polyreactivity (PSR sort gate): high polyreactivity

QVQLVESGGGLVQAGGSLLLSCAASGRTFATNAMGWNRQAPGKERELVADISGGGSTYYADSVKGRFTISRDNAKNTVYLQMNSMKPEDTAVYYCAARDYHWFQWYDYWGQGTQVTVSS
polyreactivity (PSR sort gate): low polyreactivity

QVHLVESGGGLVQAGGSLRLSCAASGSTFPYYDMGWYRQAPGKERELVAAITYNGGNTYYADSVKGRFTISRDNAKNTVYLQMNSLKPEDTAVYYCAADGTLARLYYWATGDEDGYWGQGTQVTVSS
polyreactivity (PSR sort gate): low polyreactivity

QVQLVESGGGLDQAGGSLRLSCAASGITFFNYAMGWYRQAPGKEREFVAGIDSSGGSTSYADSVKGRFTISRDNAKNTVYLQMNSLKPEDTAVYYCAADRTGSHFDYWGQGTQVTVSS
polyreactivity (PSR sort gate): low polyreactivity

QVQLVESGGGLVQAGGSLRLSCAASGGTFSYYAMGWYRQAPGKGELVAAISSGGSTNYADSVKGRFTISRDNAKNTVYLQMNSLKPEDTAVYYCAARYRFWGPYNYWGQGTQVTVSS
polyreactivity (PSR sort gate): high polyreactivity

QVQLVESGGGLVQAGGSLRLSCAASGRTFGRYTMGWYRQAPGKERELVAAITGRGGSTFYADSVKGRFTISRDYAKNTVYLQMNSLKPEDTAVYYCAARRTSIKDQFYYWGQGTQVTVSS
polyreactivity (PSR sort gate): high polyreactivity

QVQLVESGGGLVQAGGSLRLSCAASGSTFKTYTMGWYRQAPGKERELVAGITSGGSTSYADSVKGRFTISRDNAKNTVYLQMNSLKPEDTAVYYCAADTSYDSYEYWGQGTQVTVSS
polyreactivity (PSR sort gate): low polyreactivity

QVQLVESGGGLFQEGGSLRLSCAASGSTFPSYAMGWYRQAPGKERELVAAINSGGGTNYADSVKGRFTISRDNAKNTVYLQMNSLKADDTEVYYCAKSRYDYTKSEGGYWGQGTQVTVSS
polyreactivity (PSR sort gate): low polyreactivity

QVQLVESGGGLVQAGGSLRLSCADSGSIIGINAMGWYRQAPGKERELVAANNGGGSTYYADSVKGRFTISRDNAKNSVYLQMNSLKPEDTAVYYCAAEWGTSWYDYWGQGTQVTVSS
polyreactivity (PSR sort gate): low polyreactivity

QFQLVESGGGLVQAGGSLRLSCAASGIMFGYYAMGWYRQAPGKERELVAALTRSGGSTYYADSVKGRFTISRDNAKNTVYLQLNSLKPEDTALYYCNGDDDGRVSSTIVEYWGQGTQVTVSS
polyreactivity (PSR sort gate): low polyreactivity

QVQLVESGGGLVQAGGSLRLSCAASGNTFVYNDMGWYRQAPGKERELVADIRYSGSTYYADSVKGRFTISRDNAMNSVYLQMNSLKPEDTAVYYCAKAYYVLSWMGYWGQGTQVTVSS
polyreactivity (PSR sort gate): low polyreactivity

QVQLVESGGGLVQAGGSLRLSCAASGRTLGPNAMGWYRQAPGKERELVAAISWSGGSTYYADSVKGRFTISRDNAKNTVYLQMNSLKPEDTAVYYCAAEWYWVYYVPYEYWGQGTQVTVSS
polyreactivity (PSR sort gate): low polyreactivity

QVQLVESGGGLVQAGGSLRLSCAASGITFTSNTMGWYRKAPGKERELVAAISKSGGSTYYADSVKGRFTISRDNAKNTVYLQMNSLKPEDTAVYYCAKDSYYYRRDVTVDYWGQGTQVTVSS
polyreactivity (PSR sort gate): low polyreactivity
